Biological target: T1, CD46 (human (HEp-2 cells), UniProt P15529)
T1 construct: endogenous, cell-surface biotinylated, solubilised in Triton X-100 lysate; The bands in the CR2300 lane were not separately identified
T1 sequence (antigen, looked up): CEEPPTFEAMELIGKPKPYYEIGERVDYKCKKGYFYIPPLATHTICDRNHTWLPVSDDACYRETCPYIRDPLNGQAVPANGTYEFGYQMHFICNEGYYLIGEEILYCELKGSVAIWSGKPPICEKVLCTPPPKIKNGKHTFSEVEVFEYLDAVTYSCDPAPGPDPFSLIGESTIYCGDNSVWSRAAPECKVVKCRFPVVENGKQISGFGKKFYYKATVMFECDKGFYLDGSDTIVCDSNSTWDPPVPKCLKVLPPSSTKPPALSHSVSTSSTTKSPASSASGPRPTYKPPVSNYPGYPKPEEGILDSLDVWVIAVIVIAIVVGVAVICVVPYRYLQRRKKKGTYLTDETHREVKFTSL
Assay: immunoprecipitation from surface-biotinylated HEp-2 lysate, streptavidin-HRP blot
Procedure: To identify whether CR2407 reacted with a membrane extractable antigen, the cell surface of 10⁸ HEp-2 cells were biotinylated during 1 hour at room temperature with a final concentration of 2 mg sulfo-NHS-LC-LC-biotin in physiological buffer (0.2 M phosphate buffer containing 0.12 M NaCl, pH 7.4). Subsequently, the remaining free biotin was blocked during an incubation of 30 minutes at room temperature with 10 mM glycine in physiological buffer. After labeling, the cells were washed with cold physiological buffer and solubilized for 30 minutes on ice at a concentration of 3×10⁷ cells/ml in TX-100 lysis buffer (1% Triton X-100, 150 mM NaCl, 50 mM Tris pH 7.4, protease inhibitors (Roche)). The unsoluble material was removed by centrifugation for 30 minutes at 4° C. at 20,000*g.
Hereafter, the biotinylated solubilized lysates were pre-cleared with protein-A beads for 2 hours at 4° C. 4 μg of CR2407 and the negative control antibody CR2428 and positive control antibody CR2300 (directed against CD46) were coupled to protein A beads at room temperature. Next, the pre-cleared samples were incubated with the above IgG's coupled to protein-A beads for 2 hours at 4° C. […] After blotting on PVDF membranes, the biotinylated proteins were detected with streptavidin-HRP (Amersham) and enhanced chemoluminescence (Amersham).

B1: CR2407 IgG1 (antibody, V domains shown)
VH: EVQLVESGGGLVQPGGSLRLSCAASGFTFSSYAMSWVRQAPGKGLEWVSAISGSGGSTYYADSVKGRFTISRDNSKDTLYLQMSSLKTEDTAVYYCARGSLLQFWGQGTLVTVSS
VL: SSELTQDPAVSVALGQTVRITCQGDSLRSYYASWYQQKPGQAPVLVIYGKNNRPSGIPDRFSGSSSGNTASLTITGAQAEDEADYYCNSRDSSGNHVVFGGGTKLTVLG
notes: also called anti-ALCAM IgG1
binding result: no binding (tested: 4 ug IgG on protein-A beads)

From US20070287163A1 (CRUCELL HOLLAND B V, published 2007)
